Source: paper PMC9969106

Experiments:
Details in all cases: glycan lost; control: GlyRα1WT
[1] = whole-cell patch-clamp, saturating 1 mM glycine
[2] = whole-cell patch-clamp, 100 μM glycine
[3] = whole cell fraction western blot, normalized to pan-cadherin
[4] = whole-cell patch-clamp dose-response, HEK293

B1: GlyRα1: N38Q (protein)
parent chain: MYSFNTLRLYLWETIVFFSLAASKEAEAARSAPKPMSPSDFLDKLMGRTSGYDARIRPNFKGPPVNVSCNIFINSFGSIAETTMDYRVNIFLRQQWNDPRLAYNEYPDDSLDLDPSMLDSIWKPDLFFANEKGAHFHEITTDNKLLRISRNGNVLYSIRITLTLACPMDLKNFPMDVQTCIMQLESFGYTMNDLIFEWQEQGAVQVADGLTLPQFILKEEKDLRYCTKHYNTGKFTCIEARFHLERQMGYYLIQMYIPSLLIVILSWISFWINMDAAPARVGLGITTVLTMTTQSSGSRASLPKVSYVKAIDIWMAVCLLFVFSALLEYAAVNFVSRQHKELLRFRRKRRHHKSPMLNLFQEDEAGEGRFNFSAYGMGPACLQAKDGISVKGANNSNTTNPPPAPSKSPEEMRKLFIQRAKKIDKISRIGFPMAFLIFNMFYWIIYKIVRREDVHNQ
For B1, the “other: channel current, other: current amplitude” value [1] was “no change, 5.0 ± 0.8 vs 6.0 ± 0.6”, the “other: channel current, other: current amplitude” value [2] was “decreases, 1.0 ± 0.3 vs 3.6 ± 0.5” and the “expression_or_secretion, other: relative expression” value [3] was “no change, 0.57 ± 0.13 vs 1.0 ± 0.16, GlyRα1WT 1.0 ± 0.16; GlyRα1N38Q 0.57 ± 0.13; p = 0.1118”. The “other: glycine potency, EC50” value [4] was “decreases, 206 vs 85”.
